Experimental data reported in patent publication US20170320960A1 (AbbVie / Abbott, published 2017).
Read-outs that look alike come from different tables or passages of the source. Each block holds one binder with its values, some of them ahead of it.

Tests used:
[1] = target: T1, hMFI2 Tf-like Domain 1 (TLD1), amino acids 20-357, displayed on yeast (human, UniProt P08582 20-357); assay: flow cytometry on yeast displaying hMFI2 domains
T1 construct: also called TFLD1
T1 sequence: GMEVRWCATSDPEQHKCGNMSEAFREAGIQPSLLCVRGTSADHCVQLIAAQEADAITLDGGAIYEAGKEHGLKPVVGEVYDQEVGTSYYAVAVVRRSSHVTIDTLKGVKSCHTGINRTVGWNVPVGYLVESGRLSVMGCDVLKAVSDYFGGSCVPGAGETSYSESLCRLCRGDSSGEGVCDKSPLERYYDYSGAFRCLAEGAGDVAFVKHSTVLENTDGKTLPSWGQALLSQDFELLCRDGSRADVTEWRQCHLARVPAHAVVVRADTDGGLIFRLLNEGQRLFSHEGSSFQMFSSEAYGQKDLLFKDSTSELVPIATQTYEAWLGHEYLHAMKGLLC

[2] = target: T1, hMFI2 Tf-like Domain 1 (TLD1), amino …; assay: flow cytometry on yeast displaying hMFI2 domains; remark: listed apart in the source

binding result [1]: binds
B1: SC57.27 (antibody, V domains shown)
VH: ELKLVESGGDLVKPGGSLKLSCAASGFSFNNYAMSWVRQTPEKRLEWVASISSGGTTFYPDSVKGRFTMSRDHARNILYLQMNSLRSEDTAMYYCVRGQWLSLYSMDYWGQGTSVTVSS
VL: DIQMTQSPVSLSASVGETVTITCRASEIIYSYLAWYQQKQGKSPQLLVYNAKTLAEGVPSRFSGSGSGTQFSLKINSLQPEDFGTYYCQHHYGVPVTFGAGTKLELK

binding result [1]: binds
B2: SC57.2 (antibody, V domains shown)
VH: QVQLKQSGPGLVQPSQSLSITCTVSGFSLTDYGVHWVRQSPGKGLDWLGVIWSGGNTDYNAAFISRLSISKDNSKSQIFFEMNSLQDTDTAIYYCARQLHYYGPFAYWGQGTLVTVSA
VL: QIVLTQSPAIMSASPGEKVTMTCSASSSVSYMHWYQQKSGTSPKRWIYDTSKLASGVPVRFSGSGSGTSYSLTISSIEADDAATYYCQQWSRTPPTFGGGTKLEIK

binding result [1]: binds
B3: SC57.7 (antibody, V domains shown)
VH: GVQVVESGGGVVQPGGSLKLSCAASGFTFSSYAMSWVRQTPEKRLEWVAYLSRGGGSTYYLDTVKGRFTISRDNAKNTLYLQMNSLKSEDTAMYYCARLDGYNWYFDVWGAGTPVTVSS
VL: DIVMSQSPSSLAVSAGEKVTMSCKSSQSLLHSRIRKNYLAWYQQKPGQSPKLLIYWASTRESGVPDRFTGSGSGTDFTLTISSVQAEDLAVYYCKQSYNLFTFGGGTKLEIK

binding result [2]: binds
B4: SC57.48 (antibody, V domains shown)
VH: B3 VH
VL: B3 VL
